Measured values as given in patent US6355611B1, “Salt form of a conjugate useful in the treatment of prostate cancer” (Merck & Co., Inc., priority 1999, dated 2002).
In brackets after ≈: the same amount, converted by molar mass. Read-outs that look alike come from different tables or passages of the source. Starred links: 1 amine or outer side, 2 acyl side, 3 side chain; linkers in the order of their positions; H or OH if unused. Non-standard residues stand in square brackets, D forms with d. Residues, ends and D or L forms follow the SMILES beside them. ξ: configuration not given here. *: point of attachment. X1 = COc1cccc2c1C(=O)c1c(O)c3c(c(O)c1C2=O)C[C@@](O)(C(=O)CO)C[C@@H]3OC1CC(N*)C(O)C(C)O1; X2 = COc1cccc2c1C(=O)c1c(O)c3c(c(O)c1C2=O)CC(O)(C(=O)CO)CC3OC1CC(N*)C(O)C(C)O1; Glutaryl = O=C(CCCC(=O)[*:2])[*:1]; Hyp = O=C(O)[C@@H]1C[C@@H](O)CN1; Chg = N[C@H](C(=O)O)C1CCCCC1; ξChg = NC(C(=O)O)C1CCCCC1; ξHyp = O=C(O)C1CC(O)CN1; ξS = NC(CO)C(=O)O; ξA = CC(N)C(=O)O

Experiments:
Format in all cases: physicochemical
[1] = Solubility in water at room temperature
Description: (§1) It has further been discovered that the sodium salt of the Formula 5 offers advantages with respect to dissolution in water.
It has further been discovered that the lyophilized formulation offers advantages with respect to dissolution in water.

[2] = Aggregate formation on dissolution in water (filtration through 0.22μ filter)
Description: as §1

pH of aqueous solution = settings: unbuffered aqueous solution
Description: (§2) An aqueous solution of the sodium salt of the instant invention has a pH of greater than 5.0. It has been discovered that the bond between the sugar moiety of doxorubicin and the tetracyclic doxorubicinone moiety is more readily cleaved at aqueous pH of less than 4.0. Therefore the sodium salt offers clear formulation advantages over the free acid, which has an unbuffered aqueous pH of less than 4.0.

[3] = Thermal / storage stability; settings: sodium salt compared with free acid
Experimental: as §2
In particular, the lyophilized formulation is prepared by the addition of a salt of a carboxylic acid to an aqueous solution of the previously described free acid compound 4. The amount of carboxylate salt that is added to the prelyophilization solution of the compound of formula 4 is from about 3 molar equivalents of base of trisodium citrate per mole of compound 4 to about 9 molar equivalents of base per mole of compound 4. Preferably, the amount of salt that is added is about 5 molar equivalents of base per mole of compound 4.

Compound | solubility [1] | solubility ([1]; pH 2.35) | solubility ([1]; pH 5.72, water) | formation of aggregates on dissolution in water [2] | solubility ([1]; room temperature, water, read-out: solubility) | pH of aqueous solution (pH of aqueous solution) | thermal stability [3]
COc1cccc2c1C(=O)c1c(O)c3c(c(O)c1C2=O)C[C@@](O)(C(=O)CO)C[C@@H]3OC1CC(NC(=O)[C@H](CC(C)C)NC(=O)[C@H](CO)NC(=O)[C@H](CCC(N)=O)NC(=O)[C@@H](NC(=O)[C@H](CO)NC(=O)[C@H](C)NC(=O)[C@@H]2C[C@@H](O)CN2C(=O)CCCC(=O)O)C2CCCCC2)C(O)C(C)O1 (stereo partly drawn) [Compound 4, [N-Glutaryl-(4-trans-L-Hyp)]-Ala-Ser-Chg-Gln-Ser-Leu-Dox] (Glutaryl-[Hyp]AS[Chg]QSL-X1) | 13.8 mg/mL of water | 3.98 mg/mL (≈ 2850 µM) | > 156 mg/mL |  |  |  | 
COc1cccc2c1C(=O)c1c(O)c3c(c(O)c1C2=O)CC(O)(C(=O)CO)CC3OC1CC(NC(=O)[C@H](CC(C)C)NC(=O)C(CO)NC(=O)[C@H](CCC(N)=O)NC(=O)C(NC(=O)C(CO)NC(=O)C(C)NC(=O)C2CC(O)CN2C(=O)CCCC(=O)[O-])C2CCCCC2)C(O)C(C)O1.[Na+] (stereo partly drawn) [Compound 5, [N-Glutaryl-(4-trans-L-Hyp)]-Ala-Ser-Chg-Gln-Ser-Leu-Dox Sodium salt] (Glutaryl-[ξHyp][ξA][ξS][ξChg]Q[ξS]L-X2) |  |  |  | dissolves in water without forming aggregates | > 277 mg/mL | greater than 5.0 | more thermally stable than the corresponding free acid compound
